“Also recorded” adds a separate entry of the source.
Tests used:
[1] = test system: Wnt pathway (TCF-luciferase reporter); experiment: TCF-luciferase assay of LRP5 variants in U2OS cells; type: cell-based, human; conditions: for susceptibility to modulation by Dkk / activation of TCF-luciferase reporter construct: U2OS cells; for susceptibility to modulation by Dkk: in the presence of Dkk1 and Wnt1; for activation of TCF-luciferase reporter construct: in the presence of Wnt
Source text: Site-directed mutants of LRP5 were generated in the full-length human LRP5 cDNA using the QuikChange XL-Site-Directed Mutagenesis Kit (catalog #200516, Stratagene, La Jolla, Calif.) following the manufacturers protocol. The mutant sequences were introduced using complementary synthetic oligonucleotides:
All constructs were sequence verified to ensure that only the engineered modification was present in the gene. Once verified, each variant was functionally evaluated in the TCF-luciferase assay in U2OS cells (essentially as described in Example 7. Other functional evaluations could also be performed, such as the Xenopus embryo assay (essentially as described in Example 6), or other assays to evaluate Wnt signaling, Dkk modulation, or anabolic bone effect. Binding of these mutants to Dkk, LRP-interacting proteins, Dkk-interacting proteins, or peptide aptamers to any of the preceding could also be investigated in a variety of ways such as in a two-hybrid system (such as in yeast as described in this application), or other methods.
U2OS human osteosarcoma cells were also utilized. U2OS cells (ATCC) were seeded into 96-well plates at 30,000 cells per well in 200 ul of the growth media (McCoy's 5A) containing 10% (v/v) heat-inactivated FBS, 1X penicillin streptomycin, and 1×Glutamax-1, and incubated overnight at 37° C. The following day, the media was replaced with OptiMEM (Invitroge) and cells were transfected using […] (as described by the manufacturer, Invitrogen) with. 0.005 μg/well of LRP5, HBM, LRP6 or contoI plasmid DNA (empty vector pcDNA3.1) and either Wnt1 (0.0025 ug/well) or Wnt3a (0.0025 ug/well) plasmid DNA. In addition, the 16x-(AS) TCF-TK-firefly-luciferase (Ramesh Bhat, WHRI, Wyeth) and control TK-renilla luciferase (Promega Corp.) were co-transfected at 0.3 ug/well and 0.06 ug/well respectively in all experiments. […] In other experiments, cells were co-transfected with 0.005 μg/well of LRP5, 0.0025 ug/well of Wnt1 or Wnt3 a (using […] of a control pcDNA3.1) with LRP5-interacting aptamers (0.05 ug/well). Cells were cultured for an additional 18-20 hours at 37° C. Culture medium was removed. Cells were then lysed with 100 μl/well of 1X Passive Lysis Buffer (PLB) of Dual Luciferase Reagent kit (DLR-kit-Promega Corp.) 20 μl of the lysates were combined with LARII reagent of DLR-kit and assayed for TCF-firefly luciferase signal in Top Count (Packard) instrument. After measuring the Firefly readings, 100 μl of the “Stop and Glo” reagent of DLR kit that contains a quencher and a substrate for renilla luciferase was added into each well. Immediately the renilla luciferase reading was measured using the Top Count (Packard) Instrument. The ratios of the TCF-firefly luciferase to control renilla readings were calculated for each well and the mean ratio of triplicate or more wells was expressed in all data.

endogenous LRP5/6 = experiment: Cell-based TCF reporter high-throughput assay, endogenous LRP5/6; set-up: species or system human; conditions: U2OS cells
Source text: To develop a high throughput assay, the TCF-luciferase assay described in Example 7 was modified utilizing low level expression of endogenous LRP5/6 in U2OS and HEK293 cells. […] Using U2OS (human osteosarcoma) and HEK293 (ATCC) cells, the TCF-luciferase and tk-Renilla reporter element constructs were co-transfected along with Wnt3a/1 and Dkk.

canonical Wnt signaling = conditions: Semenov et al.; cited from earlier work
LRP6 [2] = molecular target: T1, LRP6 (Homo sapiens, UniProt O75581); conditions: cited from earlier work
Target sequence in this assay (O75581 20-1613, species assumed): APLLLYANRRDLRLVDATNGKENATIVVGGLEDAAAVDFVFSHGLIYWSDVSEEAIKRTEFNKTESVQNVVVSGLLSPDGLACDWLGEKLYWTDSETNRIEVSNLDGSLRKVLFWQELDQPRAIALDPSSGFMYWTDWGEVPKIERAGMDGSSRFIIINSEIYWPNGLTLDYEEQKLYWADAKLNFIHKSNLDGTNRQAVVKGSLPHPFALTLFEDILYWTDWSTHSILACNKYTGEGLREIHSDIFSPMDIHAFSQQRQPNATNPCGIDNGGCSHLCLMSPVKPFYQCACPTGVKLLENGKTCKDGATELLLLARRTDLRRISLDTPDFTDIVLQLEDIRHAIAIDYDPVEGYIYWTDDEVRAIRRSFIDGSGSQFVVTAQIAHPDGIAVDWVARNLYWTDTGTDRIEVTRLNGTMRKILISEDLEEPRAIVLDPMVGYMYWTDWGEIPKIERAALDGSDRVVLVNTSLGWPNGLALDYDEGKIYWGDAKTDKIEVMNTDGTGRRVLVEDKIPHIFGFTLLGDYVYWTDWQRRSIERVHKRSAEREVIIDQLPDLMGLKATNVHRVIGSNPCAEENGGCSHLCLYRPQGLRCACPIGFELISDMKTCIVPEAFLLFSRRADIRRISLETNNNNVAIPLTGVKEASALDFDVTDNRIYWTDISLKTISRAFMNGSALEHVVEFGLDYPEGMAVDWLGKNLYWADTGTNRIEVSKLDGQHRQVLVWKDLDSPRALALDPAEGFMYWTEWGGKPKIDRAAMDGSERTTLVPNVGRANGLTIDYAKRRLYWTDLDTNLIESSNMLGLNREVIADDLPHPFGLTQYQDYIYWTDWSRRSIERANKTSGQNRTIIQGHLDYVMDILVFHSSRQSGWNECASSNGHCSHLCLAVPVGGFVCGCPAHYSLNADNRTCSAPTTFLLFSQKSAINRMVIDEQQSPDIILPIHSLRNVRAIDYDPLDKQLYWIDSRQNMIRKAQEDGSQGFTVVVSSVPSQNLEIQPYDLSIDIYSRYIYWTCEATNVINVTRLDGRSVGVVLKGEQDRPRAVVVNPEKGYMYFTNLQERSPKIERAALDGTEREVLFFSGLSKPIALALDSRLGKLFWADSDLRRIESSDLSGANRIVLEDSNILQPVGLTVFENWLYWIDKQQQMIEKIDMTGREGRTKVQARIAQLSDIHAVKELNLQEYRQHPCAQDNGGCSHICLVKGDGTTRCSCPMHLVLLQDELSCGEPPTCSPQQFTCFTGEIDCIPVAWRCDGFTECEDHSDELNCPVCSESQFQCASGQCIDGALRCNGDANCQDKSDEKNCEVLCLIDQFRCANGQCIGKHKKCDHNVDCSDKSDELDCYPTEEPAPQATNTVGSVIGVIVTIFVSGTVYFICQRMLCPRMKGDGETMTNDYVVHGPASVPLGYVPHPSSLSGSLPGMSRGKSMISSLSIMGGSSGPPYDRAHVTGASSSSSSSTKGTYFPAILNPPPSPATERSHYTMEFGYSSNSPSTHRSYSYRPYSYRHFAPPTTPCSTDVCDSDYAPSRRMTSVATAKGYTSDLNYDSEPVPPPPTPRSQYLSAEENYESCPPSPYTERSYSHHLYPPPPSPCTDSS

LRP5 LBD = experiment: Yeast-2 hybrid interaction trap LRP5 LBD-LexA / Gal4AD-Dkk; type: binding; conditions: FIG. 18
Sequence of LRP5 LBD (as listed by the source): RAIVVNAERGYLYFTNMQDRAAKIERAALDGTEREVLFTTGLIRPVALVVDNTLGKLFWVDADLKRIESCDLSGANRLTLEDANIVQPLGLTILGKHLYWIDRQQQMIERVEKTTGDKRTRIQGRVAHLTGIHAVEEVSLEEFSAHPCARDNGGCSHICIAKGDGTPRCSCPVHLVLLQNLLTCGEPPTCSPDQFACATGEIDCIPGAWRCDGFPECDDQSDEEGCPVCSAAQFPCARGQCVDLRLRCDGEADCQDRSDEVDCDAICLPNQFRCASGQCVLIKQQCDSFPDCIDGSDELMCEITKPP
Source text: Small molecule inhibitors (or partial inhibitors) of the Dkk-LRP interaction may be an excellent osteogenic therapeutic. One way to investigate this important protein-protein interaction is using Y2H techniques substantially as described above and as is well known in the art. […] This interaction is quantitated using a reporter element known in the art, e.g., LacZ or luciferase, which is only activated when bait and prey interact. The Y2H assay is used to screen for compounds which modulate the LRP-Dkk interaction. Such a modulation would be visualized by a reduction in reporter element activation signifying a weaker or disrupted interaction, or by an enhancement of the reporter element activation signifying a stronger interaction. Thus, the Y2H assay can be used as a high-throughput screening technique to identify compounds which disrupt or enhance Dkk interaction with LRP5/LRP6/HBM, which may serve as potential therapeutics.
For example, the Interaction Trap methodology can be used as follows. […] With the LRP5LBD-LexA bait and the Gal4AD-Dkk prey, over a 20-fold activation of a lacZ reporter (under the control of a single LexA operator) was detected over the background. […] As a result, small molecules may be identified that modulate this interaction between LRP and Dkk.

LRP6 [3] = molecular target: T1, LRP6; experiment: TCF-luciferase assay in HOB-03-CE6 cells, LRP6; type: cell-based; set-up: Full length LRP6 was isolated from the pED6dpc4 vector; expressed in transfected cells; host or cells: HOB-03-CE6 osteoblastic cells; U2OS osteosarcoma cells; HEK293
Target sequence in this assay (O75581 20-1613): as the sequence (O75581 20-1613, species assumed) above

HBM = molecular target: T2, HBM (Homo sapiens, UniProt O75197, G171V); experiment: TCF-luciferase assay in HOB-03-CE6 cells, HBM; type: cell-based; conditions: Wnt3a, FIG. 15
T2 construct: Full length Zmax/LRP5 and HBM ORF cDNA; expressed in transfected cells; host or cells: HOB-03-CE6 osteoblastic cells; U2OS osteosarcoma cells; HEK293
T2 sequence (O75197 32-1615 G171V): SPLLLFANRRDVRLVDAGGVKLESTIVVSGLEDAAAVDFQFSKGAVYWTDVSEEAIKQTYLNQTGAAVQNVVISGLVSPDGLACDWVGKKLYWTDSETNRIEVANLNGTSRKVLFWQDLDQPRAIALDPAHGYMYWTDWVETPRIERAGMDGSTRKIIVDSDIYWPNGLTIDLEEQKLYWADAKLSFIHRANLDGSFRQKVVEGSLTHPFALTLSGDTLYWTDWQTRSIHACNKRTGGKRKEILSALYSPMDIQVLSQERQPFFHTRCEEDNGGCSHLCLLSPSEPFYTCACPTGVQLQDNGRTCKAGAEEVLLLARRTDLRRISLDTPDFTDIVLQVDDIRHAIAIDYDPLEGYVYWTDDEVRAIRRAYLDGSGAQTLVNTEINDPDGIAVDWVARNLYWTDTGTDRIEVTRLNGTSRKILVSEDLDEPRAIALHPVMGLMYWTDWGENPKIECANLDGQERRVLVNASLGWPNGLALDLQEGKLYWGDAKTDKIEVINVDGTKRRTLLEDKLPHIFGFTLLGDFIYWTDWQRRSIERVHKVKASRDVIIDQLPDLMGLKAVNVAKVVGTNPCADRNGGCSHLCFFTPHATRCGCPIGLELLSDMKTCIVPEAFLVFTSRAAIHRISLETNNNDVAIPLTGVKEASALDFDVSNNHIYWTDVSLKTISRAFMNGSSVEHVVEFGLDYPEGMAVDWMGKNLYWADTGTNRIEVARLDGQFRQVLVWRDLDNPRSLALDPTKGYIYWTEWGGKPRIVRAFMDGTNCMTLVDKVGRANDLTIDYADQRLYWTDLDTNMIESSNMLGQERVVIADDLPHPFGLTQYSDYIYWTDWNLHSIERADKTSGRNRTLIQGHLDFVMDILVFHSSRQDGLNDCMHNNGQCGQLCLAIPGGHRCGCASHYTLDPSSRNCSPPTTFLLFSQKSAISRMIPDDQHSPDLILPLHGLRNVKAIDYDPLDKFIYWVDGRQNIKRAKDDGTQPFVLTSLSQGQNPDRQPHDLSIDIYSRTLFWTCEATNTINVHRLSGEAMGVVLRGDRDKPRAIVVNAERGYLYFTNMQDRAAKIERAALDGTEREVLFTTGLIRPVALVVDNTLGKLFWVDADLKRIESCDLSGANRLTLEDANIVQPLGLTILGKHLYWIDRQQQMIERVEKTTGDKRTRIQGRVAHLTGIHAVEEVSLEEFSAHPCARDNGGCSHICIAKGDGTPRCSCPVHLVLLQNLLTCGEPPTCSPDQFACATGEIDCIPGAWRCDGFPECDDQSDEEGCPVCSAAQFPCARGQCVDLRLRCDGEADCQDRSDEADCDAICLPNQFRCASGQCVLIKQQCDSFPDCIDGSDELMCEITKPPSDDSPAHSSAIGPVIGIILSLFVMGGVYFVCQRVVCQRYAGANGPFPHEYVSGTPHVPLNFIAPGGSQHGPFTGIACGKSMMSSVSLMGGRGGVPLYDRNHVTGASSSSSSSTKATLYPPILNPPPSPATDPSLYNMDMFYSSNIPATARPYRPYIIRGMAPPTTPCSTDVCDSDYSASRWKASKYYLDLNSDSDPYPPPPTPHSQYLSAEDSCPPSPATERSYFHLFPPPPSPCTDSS
Protocol: (§1) HOB-03-CE6 osteoblastic cells developed by Wyeth Ayerst (Philadelphia, Pa.) were seeded into 24-well plates at 150,000 cells per well in 1 ml of the growth media (D-MEM/F12 phenol red-free) containing 10% (v/v) heat-inactivated FBS, 1×penicillin streptomycin, and 1X Glutamax-1, and incubated overnight at 34° C. The following day, the cells were transfected using Lipofectamine 2000® (as described by the manufacturer, Invitrogen) in OptiMEM (Invitrogen) with 0.35 μg/well of LRP5, HBM, or control plasmid DNA (empty vector pcDNA3.1) and either Wnt1 or Wnt3 a plasmid DNA. […] All wells were transfected with 0.025 μg/well of CMV beta-galactosidase plasmid DNA and 0.35 μg/well 16X TCF(ASyluciferase reporter DNA (developed by Ramesh Bhat, Wyeth-Ayerst (Philadelphia, Pa.)). After 4 hours of incubation, the cells were rinsed and 1 ml of fresh growth media was added to each well. The cells were cultured overnight at 34° C., followed by a wash and a change of media. Cells were cultured for an additional 18-24 hours at 37° C. Cells were then lysed with 50 μl/well of 1X lysis buffer. The extracts were assayed for beta-galactosidase activity (Galacto Reaction Buffer Diluent & Light Emission Accelerator, Tropix) using 5 μl extract+50 μl beta-galactosidase diluent and luciferase activity (Luciferase Assay Reagent, Promega) using 20 μl extract.

LRP5 = molecular target: T3, LRP5 (Homo sapiens, UniProt O75197); experiment: TCF-luciferase assay in HOB-03-CE6 cells, LRP5; type: cell-based; conditions: Wnt3a, FIG. 15
T3 construct: Site-directed mutants of LRP5 were generated in the full-length human LRP5 cDNA; expressed in transfected cells; host or cells: HOB-03-CE6 osteoblastic cells; U2OS osteosarcoma cells; HEK293
T3 sequence (O75197 32-1615): as the sequence (O75197 32-1615 G171V) above, with V140G counted along it
Protocol: as §1, with “DNA. Similar experiments were performed with LRP6 plasmid DNA (0.35 μg/well) or a control pEDdpc4 empty vector.” for “DNA.”

For “A214V: site-directed variant of human LRP5, position equivalent to 171 in blade 5”, the “HBM effect / HBM activity” value [1] was “demonstrated HBM activity”.

In the case of “G171F: site-directed variant of human LRP5 in propeller 1, introduces a ringed side-chain”, the “HBM effect / HBM activity” value [1] is reported as “results in an HBM effect; also recorded: demonstrated HBM activity”, the “susceptibility to modulation by Dkk” value [1] is reported as “less susceptible than LRP5” and the “activation of TCF-luciferase reporter construct” value [1] is reported as “greater activation of the Wnt pathway than LRP5; also recorded: able to activate the TCF-luciferase reporter construct”.

For “G171K: site-directed variant of human LRP5, introduces a charged side-chain”, the “HBM effect / HBM activity” value [1] was “demonstrated HBM activity”.

For “G171Q: site-directed variant of human LRP5, introduces the propeller 4 residue”, the “HBM effect / HBM activity” value [1] was “demonstrated HBM activity”.

In the case of “M282V: site-directed variant of human LRP5, accessible interior position in blade 1”, the “HBM effect / HBM activity” value [1] is reported as “results in an HBM-effect; also recorded: demonstrated HBM activity”, the “susceptibility to modulation by Dkk” value [1] is reported as “less susceptible than LRP5” and the “activation of TCF-luciferase reporter construct” value [1] is reported as “activation of the Wnt pathway; also recorded: able to activate the TCF-luciferase reporter construct”.

B1: Dkk-1-AP: Dkk-1 modified with alkaline phosphatase (protein)
chain: TLNSVLNSNAIKNLPPPLGGAAGHPGSAVSAAPGILYPGGNKYQTIDNYQPYPCAEDEECGTDEYCASPTRGGDAGVQICLACRKRRKRCMRHAMCCPGNYCKNGICVSSDQNHFRGEIEETITESFGNDHSTLDGYSRRTTLSSKMYHTKGQEGSVCLRSSDCASGLCCARHFWSKICKPVLKEGQVCTKHRRKGSHGLEIFQRCYCGEGLSCRIQKDHHQASNSSRLHTCQRH
modifications: left off: large carriers
notes: Dkk-1 modified with alkaline phosphatase
With B1 the “modulation of TCF signal without Wnt DNA transfection” value (endogenous LRP5/6; no Wnt3a/Wnt1 transfection, FIG. 21) was “can be modulated”.

B2: Dkk-1 mutant (C220A): Dkk-1 mutant where cysteine 220 was changed to alanine (protein)
chain: TLNSVLNSNAIKNLPPPLGGAAGHPGSAVSAAPGILYPGGNKYQTIDNYQPYPCAEDEECGTDEYCASPTRGGDAGVQICLACRKRRKRCMRHAMCCPGNYCKNGICVSSDQNHFRGEIEETITESFGNDHSTLDGYSRRTTLSSKMYHTKGQEGSVCLRSSDCASGLCCARHFWSKICKPVLKEGQVATKHRRKGSHGLEIFQRCYCGEGLSCRIQKDHHQASNSSRLHTCQRH
In the case of B2, the “repression of Wnt3a-mediated TCF reporter signaling” value (endogenous LRP5/6; Wnt3a, FIG. 19) is listed as “lack of TCF-reporter inhibition”, the “repression of Wnt signaling” value (canonical Wnt signaling) is listed as “unable to repress Wnt signaling” and the LRP6 binding (LRP6 [2]; Semenov et al.) is listed as “abolished LRP6 binding”. For the same molecule, the “interaction with LRP5 in yeast” value (LRP5 LBD) was “interaction was reduced” and the “interaction with LRP5 in yeast” value (LRP5 LBD; listed as mutant Dkk-1 (C220A)) was “unable to bind to LRP5”.

B3: Dkk-2: human Dickkopf-2, Dkk family member, full length cDNA (protein, UniProt Q9UBU2 1-259, looked up)
chain: MAALMRSKDSSCCLLLLAAVLMVESSQIGSSRAKLNSIKSSLGGETPGQAANRSAGMYQGLAFGGSKKGKNLGQAYPCSSDKECEVGRYCHSPHQGSSACMVCRRKKKRCHRDGMCCPSTRCNNGICIPVTESILTPHIPALDGTRHRDRNHGHYSNHDLGWQNLGRPHTKMSHIKGHEGDPCLRSSDCIEGFCCARHFWTKICKPVLHQGEVCTKQRKKGSHGLEIFQRCDCAKGLSCKVWKDATYSSKARLHVCQKI
modifications: full-length
notes: human Dickkopf-2, Dkk family member, full length cDNA
For B3, the “LRP6/Wnt1 mediated TCF-luciferase activity” value (LRP6 [3]; Wnt1, FIG. 14) was “had no effect”, the “LRP6/Wnt3a mediated TCF-luciferase activity” value (LRP6 [3]; Wnt3a, FIG. 15) was “able to antagonize LRP6/Wnt3a mediated TCF-luciferase activity” and the “HBM/Wnt3a mediated TCF-luciferase activity” value (HBM) was “able to antagonize the TCF-luciferase activity”. The Kd (LRP6 [2]; Mao et al., classical biochemical ligand-receptor studies) was 0.73 nM and the “LRP5/Wnt3a mediated TCF-luciferase activity” value (LRP5) was “able to antagonize the TCF-luciferase activity”.
